From paper PMC5645412, “AUNIP/C1orf135 directs DNA double-strand breaks towards the homologous recombination repair pathway” (Nature Communications, 2017)

How the values were obtained:
MBP-tagged CtIP = molecular target: T1, MBP-tagged CtIP (UniProt Q99708 1-897); assay: pull-down; GST or GST-AUNIP (wild type or mutant) on glutathione-Sepharose incubated with MBP-CtIP in NETN buffer, 2 h at 4 °C; five washes; CtIP detected by monoclonal anti-CtIP antibody; settings: both partners purified
T1 construct: CtIP; also called MBP-CtIP; source: E. coli BL21, purified (Amylose resin, eluted with maltose)
T1 sequence (Q99708 whole entry): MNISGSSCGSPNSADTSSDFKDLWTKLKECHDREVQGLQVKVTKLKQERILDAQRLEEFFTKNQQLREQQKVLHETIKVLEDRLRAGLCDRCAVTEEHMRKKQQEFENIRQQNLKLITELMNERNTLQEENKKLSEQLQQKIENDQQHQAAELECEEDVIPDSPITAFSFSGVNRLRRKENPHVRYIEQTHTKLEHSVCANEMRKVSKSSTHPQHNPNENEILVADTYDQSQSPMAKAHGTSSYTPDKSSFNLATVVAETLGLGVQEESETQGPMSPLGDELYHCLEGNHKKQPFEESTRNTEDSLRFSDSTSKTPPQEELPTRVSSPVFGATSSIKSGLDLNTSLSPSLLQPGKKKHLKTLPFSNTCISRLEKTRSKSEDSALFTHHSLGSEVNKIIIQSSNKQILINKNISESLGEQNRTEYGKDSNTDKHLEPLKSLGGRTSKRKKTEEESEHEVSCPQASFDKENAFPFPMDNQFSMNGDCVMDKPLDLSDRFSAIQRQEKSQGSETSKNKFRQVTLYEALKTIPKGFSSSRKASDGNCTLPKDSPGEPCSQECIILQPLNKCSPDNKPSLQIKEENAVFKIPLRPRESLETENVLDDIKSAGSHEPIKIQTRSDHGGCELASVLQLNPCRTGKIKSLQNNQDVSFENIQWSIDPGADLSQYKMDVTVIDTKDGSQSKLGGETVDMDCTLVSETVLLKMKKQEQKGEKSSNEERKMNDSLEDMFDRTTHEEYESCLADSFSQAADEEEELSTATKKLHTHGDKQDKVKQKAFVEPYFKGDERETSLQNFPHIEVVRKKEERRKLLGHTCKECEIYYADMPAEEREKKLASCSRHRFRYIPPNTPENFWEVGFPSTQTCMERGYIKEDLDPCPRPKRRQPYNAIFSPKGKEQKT

MBP-AUNIP = molecular target: T2, MBP-AUNIP (UniProt Q9H7T9 1-357); assay: EMSA; 10 mM MgCl2; 20 nM biotin-DNA, 0-200 nM protein, 1x LightShift binding buffer with 10 mM MgCl2, 2.5% glycerol, 0.05% NP-40, 20 min, room temperature; 10% native PAGE; pH and salt not given; settings: protein: recombinant, label: 5'-biotin on oligo 1
T2 sequence: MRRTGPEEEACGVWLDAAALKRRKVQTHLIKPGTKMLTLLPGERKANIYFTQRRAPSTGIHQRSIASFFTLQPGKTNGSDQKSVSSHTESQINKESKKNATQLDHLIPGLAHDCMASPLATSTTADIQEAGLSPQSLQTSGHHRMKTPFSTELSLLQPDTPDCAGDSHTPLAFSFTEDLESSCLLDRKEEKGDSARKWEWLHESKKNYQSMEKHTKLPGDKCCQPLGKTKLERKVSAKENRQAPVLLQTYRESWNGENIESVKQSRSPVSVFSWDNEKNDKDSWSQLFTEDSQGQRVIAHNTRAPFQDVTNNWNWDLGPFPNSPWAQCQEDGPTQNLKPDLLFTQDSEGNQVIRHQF

MBP-AUNIP Δ25-70 = molecular target: T3, MBP-AUNIP Δ25-70 (UniProt Q9H7T9 1-357, del25-70); assay: EMSA; 10 mM MgCl2; up to 200 nM protein; 20 nM biotin-DNA, 0-200 nM protein, 1x LightShift binding buffer with 10 mM MgCl2, 2.5% glycerol, 0.05% NP-40, 20 min, room temperature; 10% native PAGE; pH and salt not given; settings: protein: recombinant; label: 5'-biotin on oligo 1; fork; 31 bp duplex, two 28 nt arms (3' arm of oligo 1, 5' arm of oligo 2)
T3 sequence: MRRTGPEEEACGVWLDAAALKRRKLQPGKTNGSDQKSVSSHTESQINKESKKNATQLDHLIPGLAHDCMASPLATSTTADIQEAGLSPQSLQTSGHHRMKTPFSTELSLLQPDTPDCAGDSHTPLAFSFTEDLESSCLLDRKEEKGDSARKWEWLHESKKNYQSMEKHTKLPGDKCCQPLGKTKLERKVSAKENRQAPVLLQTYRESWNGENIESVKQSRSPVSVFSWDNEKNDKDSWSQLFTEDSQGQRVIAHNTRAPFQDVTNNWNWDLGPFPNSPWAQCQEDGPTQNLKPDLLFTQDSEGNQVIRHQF

B1: GST-tagged AUNIP (wild-type) (natural protein, human, UniProt Q9H7T9 1-357, looked up)
chain: MRRTGPEEEACGVWLDAAALKRRKVQTHLIKPGTKMLTLLPGERKANIYFTQRRAPSTGIHQRSIASFFTLQPGKTNGSDQKSVSSHTESQINKESKKNATQLDHLIPGLAHDCMASPLATSTTADIQEAGLSPQSLQTSGHHRMKTPFSTELSLLQPDTPDCAGDSHTPLAFSFTEDLESSCLLDRKEEKGDSARKWEWLHESKKNYQSMEKHTKLPGDKCCQPLGKTKLERKVSAKENRQAPVLLQTYRESWNGENIESVKQSRSPVSVFSWDNEKNDKDSWSQLFTEDSQGQRVIAHNTRAPFQDVTNNWNWDLGPFPNSPWAQCQEDGPTQNLKPDLLFTQDSEGNQVIRHQF
notes: AUNIP/C1orf135, human; pCold vectors may add further N-terminal vector residues; also called GST-AUNIP; recombinant GST-AUNIP; source: E. coli BL21, purified on glutathione-Sepharose resin (kept on the beads)
binding result (MBP-tagged CtIP): binds

B2: GST-tagged AUNIP C-terminal region (281-357) (domain or fragment, human, UniProt Q9H7T9 281-357, looked up)
chain: KDSWSQLFTEDSQGQRVIAHNTRAPFQDVTNNWNWDLGPFPNSPWAQCQEDGPTQNLKPDLLFTQDSEGNQVIRHQF
notes: source: E. coli BL21, purified on glutathione-Sepharose resin (kept on the beads)
binding result (MBP-tagged CtIP): binds

B3: splayed arm (dsDNA)
DNA 1: GACGCTGCCGAATTCTACCAGTGCCTTGCTAGGACATCTTTGCCCACCTGCAGGTTCAC
DNA 2: ATAGTCGGATCCTCTAGACAGCTCCATGTAGCAAGGCACTGGTAGAATTCGGCAGCGTC
binding result (MBP-AUNIP; fork, 31 bp duplex, two 28 nt arms (3' arm of oligo 1, 5' arm of oligo 2)): binds | binding result (MBP-AUNIP Δ25-70): no binding

B4: 3'-flap (dsDNA)
DNA 1: GACGCTGCCGAATTCTACCAGTGCCTTGCTAGGACATCTTTGCCCACCTGCAGGTTCAC
DNA 2: ATAGTCGGATCCTCTAGACAGCTCCATGTAGCAAGGCACTGGTAGAATTCGGCAGCGTC
DNA 3: CATGGAGCTGTCTAGAGGATCCGACTAT
binding result (MBP-AUNIP; 1:2 31 bp, 2:3 28 bp, 28 nt 3' flap of strand 1): binds

B5: 5'-flap (dsDNA)
DNA 1: GACGCTGCCGAATTCTACCAGTGCCTTGCTAGGACATCTTTGCCCACCTGCAGGTTCAC
DNA 2: ATAGTCGGATCCTCTAGACAGCTCCATGTAGCAAGGCACTGGTAGAATTCGGCAGCGTC
DNA 3: GTGAACCTGCAGGTGGGCAAAGATGTCC
binding result (MBP-AUNIP; 1:2 31 bp, 1:3 28 bp, 28 nt 5' flap of strand 2): binds
